Assay results published in PMC8298264, “Function of cofactor Akirin2 in the regulation of gene expression in model human neutrophil-like HL60 cells” (Bioscience Reports, 2021).

Tested on: human HL60 cells
Assay: SWATH-MS proteomics, differential protein representation, akirin2 KO vs WT HL60 cells
Type: cell-based
Conditions: akirin2 KO vs WT HL60 cells
How it was run: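 Differential representation compares akirin2 KO with WT HL60 across three biological replicates, 5 µg digest each, acquired by data-independent SWATH on a 120-min gradient. Library built from combined IDA runs searched with Paragon; proteins accepted at 1% FDR, with total-area-sum normalization.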

[1] = sheet "Under-represented in KO"
[2] = SWATH-MS, under-represented in KO

Molecule	Fold Change [1]	Log (Fold Change) [1]	Fold Change [2]	Log (Fold Change) [2]
sp¦O95466¦FMNL1_HUMAN (protein, UniProt O95466 2-1100, looked up) Formin-like protein 1: GNAAGSAEQPAGPAAPPPKQPAPPKQPMPAAGELEERFNRALNCMNLPPDKVQLLSQYDNEKKWELICDQERFQVKNPPAAYIQKLKSYVDTGGVSRKVAADWMSNLGFKRRVQESTQVLRELETSLRTNHIGWVQEFLNEENRGLDVLLEYLAFAQCSVTYDMESTDNGASNSEKNKPLEQSVEDLSKGPPSSVPKSRHLTIKLTPAHSRKALRNSRIVSQKDDVHVCIMCLRAIMNYQSGFSLVMNHPACVNEIALSLNNKNPRTKALVLELLAAVCLVRGGHDIILAAFDNFKEVCGEQHRFEKLMEYFRNEDSNIDFMVACMQFINIVVHSVENMNFRVFLQYEFTHLGLDLYLERLRLTESDKLQVQIQAYLDNIFDVGALLEDTETKNAVLEHMEELQEQVALLTERLRDAENESMAKIAELEKQLSQARKELETLRERFSESTAMGPSRRPPEPEKAPPAAPTRPSALELKVEELEEKGLIRILRGPGDAVSIEILPVAVATPSGGDAPTPGVPTGSPSPDLAPAAEPAPGAAPPPPPPLPGLPSPQEAPPSAPPQAPPLPGSPEPPPAPPLPGDLPPPPPPPPPPPGTDGPVPPPPPPPPPPPGGPPDALGRRDSELGPGVKAKKPIQTKFRMPLLNWVALKPSQITGTVFTELNDEKVLQELDMSDFEEQFKTKSQGPSLDLSALKSKAAQKAPSKATLIEANRAKNLAITLRKGNLGAERICQAIEAYDLQALGLDFLELLMRFLPTEYERSLITRFEREQRPMEELSEEDRFMLCFSRIPRLPERMTTLTFLGNFPDTAQLLMPQLNAIIAASMSIKSSDKLRQILEIVLAFGNYMNSSKRGAAYGFRLQSLDALLEMKSTDRKQTLLHYLVKVIAEKYPQLTGFHSDLHFLDKAGSVSLDSVLADVRSLQRGLELTQREFVRQDDCMVLKEFLRANSPTMDKLLADSKTAQEAFESVVEYFGENPKTTSPGLFFSLFSRFIKAYKKAEQEVEQWKKEAAAQEAGADTPGKGEPPAPKSPPKARRPQMDLISELKRRQQKEPLIYESDRDGAIEDIITVIKTVPFTARTGKRTSRLLCEASLGEEMPL	0.3323	-0.4785		
sp¦P05164¦PERM_HUMAN (protein, UniProt P05164 165-745, looked up) Myeloperoxidase: VTCPEQDKYRTITGMCNNRRSPTLGASNRAFVRWLPAEYEDGFSLPYGWTPGVKRNGFPVALARAVSNEIVRFPTDQLTPDQERSLMFMQWGQLLDHDLDFTPEPAARASFVTGVNCETSCVQQPPCFPLKIPPNDPRIKNQADCIPFFRSCPACPGSNITIRNQINALTSFVDASMVYGSEEPLARNLRNMSNQLGLLAVNQRFQDNGRALLPFDNLHDDPCLLTNRSARIPCFLAGDTRSSEMPELTSMHTLLLREHNRLATELKSLNPRWDGERLYQEARKIVGAMVQIITYRDYLPLVLGPTAMRKYLPTYRSYNDSVDPRIANVFTNAFRYGHTLIQPFMFRLDNRYQPMEPNPRVPLSRVFFASWRVVLEGGIDPILRGLMATPAKLNRQNQIAVDEIRERLFEQVMRIGLDLPALNMQRSRDHGLPGYNAWRRFCGLPQPETVGQLGTVLRNLKLARKLMEQYGTPNNIDIWMGGVSEPLKRKGRVGPLLACIIGTQFRKLRDGDRFWWENEGVFSMQQRQALAQISLPRIICDNTGITTVSKNNIFMSNSYPRDFVNCSTLPALNLASWREAS			0.7315	-0.1358
sp¦P23634¦AT2B4_HUMAN (protein, UniProt P23634 1-1241, looked up) Plasma membrane …: MTNPSDRVLPANSMAESREGDFGCTVMELRKLMELRSRDALTQINVHYGGVQNLCSRLKTSPVEGLSGNPADLEKRRQVFGHNVIPPKKPKTFLELVWEALQDVTLIILEIAAIISLVLSFYRPAGEENELCGQVATTPEDENEAQAGWIEGAAILFSVIIVVLVTAFNDWSKEKQFRGLQCRIEQEQKFSIIRNGQLIQLPVAEIVVGDIAQVKYGDLLPADGILIQGNDLKIDESSLTGESDHVKKSLDKDPMLLSGTHVMEGSGRMVVTAVGVNSQTGIILTLLGVNEDDEGEKKKKGKKQGVPENRNKAKTQDGVALEIQPLNSQEGIDNEEKDKKAVKVPKKEKSVLQGKLTRLAVQIGKAGLLMSALTVFILILYFVIDNFVINRRPWLPECTPIYIQYFVKFFIIGITVLVVAVPEGLPLAVTISLAYSVKKMMKDNNLVRHLDACETMGNATAICSDKTGTLTMNRMTVVQAYIGGIHYRQIPSPDVFLPKVLDLIVNGISINSAYTSKILPPEKEGGLPRQVGNKTECALLGFVTDLKQDYQAVRNEVPEEKLYKVYTFNSVRKSMSTVIRNPNGGFRMYSKGASEIILRKCNRILDRKGEAVPFKNKDRDDMVRTVIEPMACDGLRTICIAYRDFDDTEPSWDNENEILTELTCIAVVGIEDPVRPEVPDAIAKCKQAGITVRMVTGDNINTARAIATKCGILTPGDDFLCLEGKEFNRLIRNEKGEVEQEKLDKIWPKLRVLARSSPTDKHTLVKGIIDSTVGEHRQVVAVTGDGTNDGPALKKADVGFAMGIAGTDVAKEASDIILTDDNFTSIVKAVMWGRNVYDSISKFLQFQLTVNVVAVIVAFTGACITQDSPLKAVQMLWVNLIMDTFASLALATEPPTESLLKRRPYGRNKPLISRTMMKNILGHAFYQLIVIFILVFAGEKFFDIDSGRKAPLHSPPSQHYTIVFNTFVLMQLFNEINSRKIHGEKNVFSGIYRNIIFCSVVLGTFICQIFIVEFGGKPFSCTSLSLSQWLWCLFIGIGELLWGQFISAIPTRSLKFLKEAGHGTTKEEITKDAEGLDEIDHAEMELRRGQILWFRGLNRIQTQIDVINTFQTGASFKGVLRRQNMGQHLDVKLVPSSSYIKVVKAFHSSLHESIQKPYNQKSIHSFMTHPEFAIEEELPRTPLLDEEEEENPDKASKFGTRVLLLDGEVTPYANTNNNAVDCNQVQLPQSDSSLQSLETSV	0.3316	-0.4794		
sp¦P08240¦SRPRA_HUMAN (protein, UniProt P08240 1-638, looked up) Signal recognition particle …: MLDFFTIFSKGGLVLWCFQGVSDSCTGPVNALIRSVLLQERGGNNSFTHEALTLKYKLDNQFELVFVVGFQKILTLTYVDKLIDDVHRLFRDKYRTEIQQQSALSLLNGTFDFQNDFLRLLREAEESSKIRAPTTMKKFEDSEKAKKPVRSMIETRGEKPKEKAKNSKKKGAKKEGSDGPLATSKPVPAEKSGLPVGPENGVELSKEELIRRKREEFIQKHGRGMEKSNKSTKSDAPKEKGKKAPRVWELGGCANKEVLDYSTPTTNGTPEAALSEDINLIRGTGSGGQLQDLDCSSSDDEGAAQNSTKPSATKGTLGGMFGMLKGLVGSKSLSREDMESVLDKMRDHLIAKNVAADIAVQLCESVANKLEGKVMGTFSTVTSTVKQALQESLVQILQPQRRVDMLRDIMDAQRRQRPYVVTFCGVNGVGKSTNLAKISFWLLENGFSVLIAACDTFRAGAVEQLRTHTRRLSALHPPEKHGGRTMVQLFEKGYGKDAAGIAMEAIAFARNQGFDVVLVDTAGRMQDNAPLMTALAKLITVNTPDLVLFVGEALVGNEAVDQLVKFNRALADHSMAQTPRLIDGIVLTKFDTIDDKVGAAISMTYITSKPIVFVGTGQTYCDLRSLNAKAVVAALMKA			0.7296	-0.1369
sp¦Q14C86¦GAPD1_HUMAN (protein, UniProt Q14C86 1-1478, looked up) GTPase-activating protein and …: MVKLDIHTLAHHLKQERLYVNSEKQLIQRLNADVLKTAEKLYRTAWIAKQQRINLDRLIITSAEASPAECCQHAKILEDTQFVDGYKQLGFQETAYGEFLSRLRENPRLIASSLVAGEKLNQENTQSVIYTVFTSLYGNCIMQEDESYLLQVLRYLIEFELKESDNPRRLLRRGTCAFSILFKLFSEGLFSAKLFLTATLHEPIMQLLVEDEDHLETDPNKLIERFSPSQQEKLFGEKGSDRFRQKVQEMVESNEAKLVALVNKFIGYLKQNTYCFPHSLRWIVSQMYKTLSCVDRLEVGEVRAMCTDLLLACFICPAVVNPEQYGIISDAPINEVARFNLMQVGRLLQQLAMTGSEEGDPRTKSSLGKFDKSCVAAFLDVVIGGRAVETPPLSSVNLLEGLSRTVVYITYSQLITLVNFMKSVMSGDQLREDRMALDNLLANLPPAKPGKSSSLEMTPYNTPQLSPATTPANKKNRLPIATRSRSRTNMLMDLHMDHEGSSQETIQEVQPEEVLVISLGTGPQLTPGMMSENEVLNMQLSDGGQGDVPVDENKLHGKPDKTLRFSLCSDNLEGISEGPSNRSNSVSSLDLEGESVSELGAGPSGSNGVEALQLLEHEQATTQDNLDDKLRKFEIRDMMGLTDDRDISETVSETWSTDVLGSDFDPNIDEDRLQEIAGAAAENMLGSLLCLPGSGSVLLDPCTGSTISETTSEAWSVEVLPSDSEAPDLKQEERLQELESCSGLGSTSDDTDVREVSSRPSTPGLSVVSGISATSEDIPNKIEDLRSECSSDFGGKDSVTSPDMDEITHGAHQLTSPPSQSESLLAMFDPLSSHEGASAVVRPKVHYARPSHPPPDPPILEGAVGGNEARLPNFGSHVLTPAEMEAFKQRHSYPERLVRSRSSDIVSSVRRPMSDPSWNRRPGNEERELPPAAAIGATSLVAAPHSSSSSPSKDSSRGETEERKDSDDEKSDRNRPWWRKRFVSAMPKAPIPFRKKEKQEKDKDDLGPDRFSTLTDDPSPRLSAQAQVAEDILDKYRNAIKRTSPSDGAMANYESTGDNHDRDLSSKLLYHSDKEVMGDGESAHDSPRDEALQNISADDLPDSASQAAHPQDSAFSYRDAKKKLRLALCSADSVAFPVLTHSTRNGLPDHTDPEDNEIVCFLKVQIAEAINLQDKNLMAQLQETMRCVCRFDNRTCRKLLASIAEDYRKRAPYIAYLTRCRQGLQTTQAHLERLLQRVLRDKEVANRYFTTVCVRLLLESKEKKIREFIQDFQKLTAADDKTAQVEDFLQFLYGAMAQDVIWQNASEEQLQDAQLAIERSVMNRIFKLAFYPNQDGDILRDQVLHEHIQRLSKVVTANHRALQIPEVYLREAPWPSAQSEIRTISAYKTPRDKVQCILRMCSTIMNLLSLANEDSVPGADDFVPVLVFVLIKANPPCLLSTVQYISSFYASCLSGEESYWWMQFTAAVEFIKTIDDRK			0.7165	-0.1448
sp¦P10809¦CH60_HUMAN (protein, UniProt P10809 27-573, looked up) 60 kDa heat shock protein, …: AKDVKFGADARALMLQGVDLLADAVAVTMGPKGRTVIIEQSWGSPKVTKDGVTVAKSIDLKDKYKNIGAKLVQDVANNTNEEAGDGTTTATVLARSIAKEGFEKISKGANPVEIRRGVMLAVDAVIAELKKQSKPVTTPEEIAQVATISANGDKEIGNIISDAMKKVGRKGVITVKDGKTLNDELEIIEGMKFDRGYISPYFINTSKGQKCEFQDAYVLLSEKKISSIQSIVPALEIANAHRKPLVIIAEDVDGEALSTLVLNRLKVGLQVVAVKAPGFGDNRKNQLKDMAIATGGAVFGEEGLTLNLEDVQPHDLGKVGEVIVTKDDAMLLKGKGDKAQIEKRIQEIIEQLDVTTSEYEKEKLNERLAKLSDGVAVLKVGGTSDVEVNEKKDRVTDALNATRAAVEEGIVLGGGCALLRCIPALDSLTPANEDQKIGIEIIKRTLKIPAMTIAKNAGVEGSLIVEKIMQSSSEVGYDAMAGDFVNMVEKGIIDPTKVVRTALLDAAGVASLLTTAEVVVTEIPKEEKDPGMGAMGGMGGGMGGGMF			0.7233	-0.1407
